Substitutions are numbered along the chain they refer to.
T1: mouse FcγRII (mouse, UniProt P08101 30-210)
T1 construct: Extracellular domain with C-terminal His tag; also called mFcγRII; mFcgRII
T1 sequence: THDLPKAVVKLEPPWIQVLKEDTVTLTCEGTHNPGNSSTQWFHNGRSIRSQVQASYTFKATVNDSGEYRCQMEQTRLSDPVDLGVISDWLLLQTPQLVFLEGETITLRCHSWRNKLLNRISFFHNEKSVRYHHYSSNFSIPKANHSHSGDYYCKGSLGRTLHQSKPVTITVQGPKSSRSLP

T2: mouse FcγRIII (mouse, UniProt P08508 31-215)
T2 construct: Extracellular domain with C-terminal His tag; also called mFcγRIII; mFcgRIII
T2 chain: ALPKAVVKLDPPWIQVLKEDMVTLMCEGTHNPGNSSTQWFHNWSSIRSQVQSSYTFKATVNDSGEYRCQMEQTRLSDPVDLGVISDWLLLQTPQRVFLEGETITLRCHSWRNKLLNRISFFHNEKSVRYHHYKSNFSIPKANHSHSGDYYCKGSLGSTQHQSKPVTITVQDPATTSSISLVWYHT

B1: MB828 (antibody, mouse IgG1, kappa)
heavy: QVQLQESGPGLVKPSETLSLTCAVSGHSISHDHAWSWVRQPPGEGLEWIGFISYSGITNYNPSLQGRVTISRDNSKNTLYLQMNSLRAEDTAVYYCARSLARTTAMDYWGEGTLVTVSSAKTTPPSVYPLAPGSAAQTNSMVTLGCLVKGYFPEPVTVTWNSGSLSSGVHTFPAVLQSDLYTLSSSVTVPSSTWPSETVTCNVAHPASSTKVDKKIVPRDCGCKPCICEPNEVELVFIFPPKPKDVLTITLTPKVTCVVVDISKDDPEVQFSWFVDDVEVHTAQTQPREEQFNSTFRSVSELPIMHQDWLNGKEFKCRVNSAGFPAPIYKTISKTKGRPKAPQVYTIPPPKEQMAKDKVSLTCMITDFFPEDITVEWQWNGQPAENYKNTQPIMDTDGSYFVYSKLNVQKSNWEAGNTFTCSVLHEGLHNHHTEKSLSHSPGK
light: not shown
notes: CH name; VH H237 + CH, L chain MRAL-k0; copies: 2 + 2
B2: MB864 (antibody, mouse IgG1, kappa)
heavy: B1 heavy with K264D, A322D, Y329E, K330R
light: not shown
notes: as for B1
B3: MB835 (antibody, mouse IgG1, kappa)
heavy: B1 heavy with K264D, G323A, Y329E
light: not shown
notes: as for B1
B4: MB832 (antibody, mouse IgG1, kappa)
heavy: B1 heavy with G323A, P327Y
light: not shown
notes: as for B1
B5: MB853 (antibody, mouse IgG1, kappa)
heavy: B1 heavy with Q291L, A322D, P327Y, Y329E
light: not shown
notes: as for B1
B6: MB847 (antibody, mouse IgG1, kappa)
heavy: B1 heavy with Q291L, A322D, Y329E
light: not shown
notes: as for B1
B7: MB850 (antibody, mouse IgG1, kappa)
heavy: B1 heavy with A322D
light: not shown
notes: as for B1
B8: MB846 (antibody, mouse IgG1, kappa)
heavy: B1 heavy with K264D, A322D, Y329E
light: not shown
notes: as for B1
B9: MB862 (antibody, mouse IgG1, kappa)
heavy: B1 heavy with K264D, A322D, P327Y, Y329E
light: not shown
notes: as for B1
B10: MB831 (antibody, mouse IgG1, kappa)
heavy: B1 heavy with G323A, P327F, Y329E, K330R
light: not shown
notes: as for B1
B11: MB830 (antibody, mouse IgG1, kappa)
heavy: B1 heavy with G323A, P327F
light: not shown
notes: as for B1
B12: MB859 (antibody, mouse IgG1, kappa)
heavy: B1 heavy with A322D, P327Y, Y329E, K330R
light: not shown
notes: as for B1
B13: MB851 (antibody, mouse IgG1, kappa)
heavy: B1 heavy with A322D, Y329E, K330R
light: not shown
notes: as for B1
B14: MB829 (antibody, mouse IgG1, kappa)
heavy: B1 heavy with Y329E, K330R
light: not shown
notes: as for B1
B15: MB858 (antibody, mouse IgG1, kappa)
heavy: B1 heavy with N320D, A322D, Y329E, K330R
light: not shown
notes: as for B1
B16: MB863 (antibody, mouse IgG1, kappa)
heavy: B1 heavy with K264D, A322D
light: not shown
notes: as for B1
B17: MB865 (antibody, mouse IgG1, kappa)
heavy: B1 heavy with K264D, Q291L, A322D, Y329E
light: not shown
notes: as for B1
B18: MB854 (antibody, mouse IgG1, kappa)
heavy: B1 heavy with Q291L, A322D
light: not shown
notes: as for B1
B19: MB855 (antibody, mouse IgG1, kappa)
heavy: B1 heavy with Q291L, A322D, Y329E, K330R
light: not shown
notes: as for B1
B20: MB852 (antibody, mouse IgG1, kappa)
heavy: B1 heavy with Q291L, N320D, A322D, Y329E
light: not shown
notes: as for B1
B21: MB849 (antibody, mouse IgG1, kappa)
heavy: B1 heavy with A322D, P327Y, Y329E
light: not shown
notes: as for B1
B22: MB848 (antibody, mouse IgG1, kappa)
heavy: B1 heavy with N320D, A322D, Y329E
light: not shown
notes: as for B1
B23: MB833 (antibody, mouse IgG1, kappa)
heavy: B1 heavy with G323A, P327Y, Y329E, K330R
light: not shown
notes: as for B1
B24: MB860 (antibody, mouse IgG1, kappa)
heavy: B1 heavy with A322D, K330R
light: not shown
notes: as for B1
B25: MB857 (antibody, mouse IgG1, kappa)
heavy: B1 heavy with N320D, A322D
light: not shown
notes: as for B1
B26: MB856 (antibody, mouse IgG1, kappa)
heavy: B1 heavy with N320D, A322D, P327Y, Y329E
light: not shown
notes: as for B1
B27: MB861 (antibody, mouse IgG1, kappa)
heavy: B1 heavy with K264D, N320D, A322D, Y329E
light: not shown
notes: as for B1
B28: MB834 (antibody, mouse IgG1, kappa)
heavy: B1 heavy with G323A, K330R
light: not shown
notes: as for B1

These binders were tested against T1, mouse FcγRII (assay: SPR (Biacore T200); KD of H237-MB630/MRAL-k0 / KD of variant).

Relative mFcγRII-binding activity (MB630 = 1) [fold] | Binder
2.16 | B1
10.4 | B2
2 | B3
0.4 | B4
3.31 | B5
4.12 | B6
4.12 | B7
6.8 | B8
6.41 | B9
1.7 | B10
0.37 | B11
3.22 | B12
4.13 | B13
2.57 | B14
5.86 | B15
7.68 | B16
7.91 | B17
4.77 | B18
3.41 | B19
5.76 | B20
2.97 | B21
4.33 | B22
1.92 | B23
3.74 | B24
4.21 | B25
4.23 | B26
7.25 | B27
1.29 | B28

Molecular target: T2, mouse FcγRIII
Experiment: as above

Relative mFcγRIII-binding activity (MB630 = 1) [fold] | Binder
2.14 | B1
19.9 | B2
3.05 | B3
0.4 | B4
6.2 | B5
7.24 | B6
4.3 | B7
11.6 | B8
10.8 | B9
1.71 | B10
0.36 | B11
3.9 | B12
5.23 | B13
2.75 | B14
6.92 | B15
12.7 | B16
18.3 | B17
6.84 | B18
6.21 | B19
10 | B20
3.54 | B21
5 | B22
1.94 | B23
4.07 | B24
4.92 | B25
4.95 | B26
13.2 | B27
1.25 | B28

These binders were tested against T1, mouse FcγRII (assay: SPR (Biacore T200); KD of H237-mIgG1/MRAL-k0 / KD of variant).

relative mFcγRII-binding activity (mIgG1 = 1) [fold] | Binder
28.4 | B1
110 | B2
26.3 | B3
5.2 | B4
35 | B5
43.7 | B6
43.7 | B7
72.1 | B8
67.9 | B9
22.3 | B10
4.8 | B11
34.2 | B12
43.8 | B13
33.8 | B14
62 | B15
81.3 | B16
83.8 | B17
50.6 | B18
36.2 | B19
61 | B20
31.4 | B21
45.8 | B22
25.3 | B23
39.6 | B24
44.6 | B25
44.8 | B26
76.8 | B27
17 | B28

Molecular target: T2, mouse FcγRIII
Experiment: as above

relative mFcγRIII-binding activity (mIgG1 = 1) [fold] | Binder
0.49 | B1
3.63 | B2
0.7 | B3
0.09 | B4
1.13 | B5
1.33 | B6
0.79 | B7
2.12 | B8
1.98 | B9
0.39 | B10
0.08 | B11
0.71 | B12
0.96 | B13
0.63 | B14
1.27 | B15
2.33 | B16
3.34 | B17
1.25 | B18
1.14 | B19
1.83 | B20
0.65 | B21
0.92 | B22
0.45 | B23
0.75 | B24
0.9 | B25
0.91 | B26
2.41 | B27
0.29 | B28
